Starred links: 1 amine or outer side, 2 acyl side, 3 side chain; linkers in the order of their positions; H or OH if unused. Positions of bridges follow the written chain, without caps; N, C: chain ends. Residues, ends and D or L forms follow the SMILES beside them. Primed or numbered codes have the meaning given here. No end group written: not given here. *: point of attachment. X1 = O=C(C[*:2])NCCNC(=O)c1ccc(C2=N[C@H](C(=O)[*:1])CS2)cc1; FITC = O=C1OC2(c3ccc(O)cc3Oc3cc(O)ccc32)c2ccc(NC(=S)*)cc21; cADT = 2-aryl-4,5-dihydrothiazole (ADT) linker; FITC′ = fluorescein isothiocyanate; ADT (ClAc-3) = not defined here

T1: BCL-w (residues 6-152) (human, UniProt Q92843 6-152, biotin (biotinylated for SPR; site not stated))
T1 construct: source: E. coli BL21 (DE3), purified (Ni-NTA, Superdex 75, RESOURCE Q, Superdex 200)
T1 sequence (looked up): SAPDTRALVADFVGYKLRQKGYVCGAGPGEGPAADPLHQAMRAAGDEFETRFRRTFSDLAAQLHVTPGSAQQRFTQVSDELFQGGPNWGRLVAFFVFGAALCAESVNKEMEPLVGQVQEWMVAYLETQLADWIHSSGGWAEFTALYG

T2: cp2-F (linker 1-11 via ADT (ClAc-3) (inferred); reading uncertain; also: modified by ClAc-3, printed as CPIRYEWDEFCG{K(FITC)})
T2 construct: also called cp2-FITC; source: synthetic peptide
T2 peptide: CPIRYEWDEFCGK(FITC′)

B1: cp2 (peptide)
peptide: CPIRYEWDEFC
modifications: linker 1-11 via cADT (inferred)
notes: cyclic peptide from the second phage library CPXRYXWDXXC screened against BCL-2; they agree with I3, E6, E9 and F10 named in the text
B2: cp3 (peptide)
peptide: CPIRYPWDVEC
modifications: linker 1-11 via cADT (inferred)
notes: cyclic peptide from the second phage library CPXRYXWDXXC screened against BCL-XL; they agree with P6, V9 and E10 named in the text
B3: chimeric human BCL-2 (residues 1-50 and 92-207, residues 35-50 replaced with residues 33-48 of BCL-XL) (domain or fragment, UniProt P10415 1-34, looked up)
chain: MAHAGRTGYDNREIVMKYIHYKLSQRGYEWDAGDNRTEAPEGTESEMETPVVHLTLRQAGDDFSRRYRRDFAEMSSQLHLTPFTARGRFATVVEELFRDGVNWGRIVAFFEFGGVMCVESVNREMSPLVDNIALWMTEYLNRHLHTWIQDNGGWDAFVELYGPSMR
modifications: biotin (biotinylated for SPR; site not stated)
notes: BCL-2, human, residues 1-34 of the chimera (internal loop 51-91 removed; residues 35-50 replaced with residues 33-48 of BCL-XL); BCL-XL, human, residues 33-48, in place of BCL-2 residues 35-50; BCL-2, human, residues 92-207; Biotinylated for SPR; used as such for crystals and fluorescence polarisation; also called BCL-2 WT; source: E. coli BL21 (DE3), purified (Ni-NTA, Superdex 75, RESOURCE Q, …)

For one data set, the system named is Jurkat cells. It is filed as cell-based. The procedure: Supplementary Figure 10 Functional mechanism of CPs. a. IC50 values of venetoclax against A549, MGC-803 and PANC-1 cells, measured after 48 h treatment by a CellTiter-Glo assay and calculated using Prism 7.0 by a nonlinear-fit method. Data are presented as mean ± s.d.; n= 6 biological replicates. b. Western blot detecting the protein expression levels of BCL-2 and BCL-XL in A549, MGC-803, Daudi and Jurkat cells. c-d. Western blot detecting the protein expression levels of BCL-2 and BCL-XL in El4 cells (c) and RS4:11 cells (d). e. Western blot verifying the protein expression levels of exogenous BCL-2 in normal A549 cells (control) and those stably overexpressing BCL-2 WT or G101V mutant. f. qPCR results testing the overexpression of BCL-2 WT or G101V mutant in A549 stable cells. Data are presented as mean ± s.d.; n= 6 biological replicates; one-way ANOVA with Dunnett’s multiple comparisons test. g. Cell viability assay of Jurkat cells after 48 h treatment with DMSO, cp1-FITC, cp6-FITC, respectively. P1 represents the percentage of active cells. h. FITC signal tests after 48 h treatment with DMSO, cp1-FITC, cp6-FITC, respectively. P4 represents cells with the FITC signal. i-k. Structures of cp1-TAT, cp2-TAT and cp3-TAT. […]

Data set [1] concerns the target T3, human BCL-XL (residues 1-210, with 27-81 and 210-233 removed) (human, UniProt Q07817-1 1-209, 27-81 removed, biotin (biotinylated for SPR; site not stated)).
T3 construct: BCL-XL, human; printed as residues 1-210, with 27-81 and 210-233 removed (so the last residue is 209 or 210); source: E. coli BL21 (DE3), purified (Ni-NTA, Superdex 75, RESOURCE Q, Superdex 200)
Put plainly: SPR; Biacore T200; biotinylated proteins immobilised on a CAP sensor chip; peptides flowed in multiple cycles (25-12800 nM, depending on the peptides) at 30 uL/min; 10 mM PBS, 50 uM EDTA, 0.05% Tween-20, 25 °C; affinity fitting, 1:1 binding model. Particulars: both partners purified. (In general: Surface plasmon resonance follows binding to a sensor surface in real time, without labels.)

Another data set concerns the target T4, BCL-2-F104L (human, UniProt P10415 1-34; Q07817 33-48; P10415 92-207, F104L, biotin (biotinylated for SPR; site not stated)).
T4 construct: BCL-2, human, residues 1-34 of the chimera, as m6; BCL-XL, human, residues 33-48, in place of BCL-2 residues 35-50; BCL-2, human, residues 92-207; Chimera m6 with F104L, a drug-resistant mutation found in a mouse model (residue number of the human protein); also called BCL-2 F104L mutant; source: E. coli BL21 (DE3), purified (Ni-NTA, Superdex 75, RESOURCE Q, Superdex 200)
Described as above. To be noted: both partners purified.

Data set [2] addresses B3. Described as above. To be noted: both partners purified.
A further data set deals with T1, BCL-w (residues 6-152). The description is as above. To be noted: both partners purified.
For the next data set, the target named is T5, BCL-2-G101V (human, UniProt P10415 1-34; Q07817 33-48; P10415 92-207, G101V, biotin (biotinylated for SPR; site not stated)).
T5 construct: BCL-2, human, residues 1-34 of the chimera, as m6; BCL-XL, human, residues 33-48, in place of BCL-2 residues 35-50; BCL-2, human, residues 92-207; Chimera m6 with the venetoclax-resistant clinical mutation G101V; also called BCL-2 G101V mutant; source: E. coli BL21 (DE3), purified (Ni-NTA, Superdex 75, RESOURCE Q, Superdex 200)
The data set is described as above. To be noted: both partners purified.

The target of a further data set is T6, BCL-2-D111A (human, UniProt P10415 1-34; Q07817 33-48; P10415 92-207, D111A, biotin (biotinylated for SPR; site not stated)).
T6 construct: BCL-2, human, residues 1-34 of the chimera, as m6; BCL-XL, human, residues 33-48, in place of BCL-2 residues 35-50; BCL-2, human, residues 92-207; Chimera m6 with the point mutation D111A made by mutagenic PCR; also called BCL-2 D111A mutant; source: E. coli BL21 (DE3), purified (Ni-NTA, Superdex 75, RESOURCE Q, Superdex 200)
The data set is described as above. Particulars: both partners purified.

A further data set concerns the target T7, BCL-2-D103Y (human, UniProt P10415 1-34; Q07817 33-48; P10415 92-207, D103Y, biotin (biotinylated for SPR; site not stated)).
T7 construct: BCL-2, human, residues 1-34 of the chimera, as m6; BCL-XL, human, residues 33-48, in place of BCL-2 residues 35-50; BCL-2, human, residues 92-207; Chimera m6 with the clinical mutation D103Y; source: E. coli BL21 (DE3), purified (Ni-NTA, Superdex 75, RESOURCE Q, Superdex 200)
The data set is described as above. Particulars: both partners purified.

The target of a further data set is T2, cp2-F. Put plainly: fluorescence polarisation; direct binding: 20 nM FITC-labelled peptide, protein 60-1000 nM, 1x PBS pH 7.4, room temperature, 10 min. Particulars: both partners purified. On the technique in general: Polarisation of emitted light reports the rotation of a fluorescent probe.

T6 sequence (P10415 other isoform, or with tags, fused parts or gaps D111A | D111A | D111A D111A): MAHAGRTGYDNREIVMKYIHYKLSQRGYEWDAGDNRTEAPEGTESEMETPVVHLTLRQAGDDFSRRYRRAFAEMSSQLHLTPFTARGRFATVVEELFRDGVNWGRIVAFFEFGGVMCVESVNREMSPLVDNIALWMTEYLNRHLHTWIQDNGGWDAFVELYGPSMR
T7 sequence (P10415 other isoform, or with tags, fused parts or gaps D103Y | D103Y | D103Y D103Y): as the sequence (P10415 other isoform, or with tags, fused parts or gaps D111A | D111A | D111A D111A) above, with D62Y, A70D counted along it
T5 sequence (P10415 other isoform, or with tags, fused parts or gaps G101V | G101V | G101V G101V): as the sequence (P10415 other isoform, or with tags, fused parts or gaps D111A | D111A | D111A D111A) above, with G60V, A70D counted along it
T3 sequence (Q07817 other isoform, or with tags, fused parts or gaps 27-81 removed | 27-81 removed): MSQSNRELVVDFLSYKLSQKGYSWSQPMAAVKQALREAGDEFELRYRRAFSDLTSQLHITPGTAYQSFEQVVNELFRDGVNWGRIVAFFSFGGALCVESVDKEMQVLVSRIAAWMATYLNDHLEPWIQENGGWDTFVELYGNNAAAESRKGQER

`C[C@@H]1NC(=O)[C@@H]2CCCN2C(=O)[C@@H]2CSC(=N2)c2ccc(cc2)C(=O)NCCNC(=O)CSC[C@@H](C(=O)NCC(=O)N[C@@H](CCCCNC(=S)Nc2ccc3c(c2)C(=O)OC32c3ccc(O)cc3Oc3cc(O)ccc32)C(N)=O)NC(=O)[C@H](CCC(=O)O)NC(=O)[C@H](Cc2ccc(O)cc2)NC(=O)[C@H](CC(=O)O)NC(=O)[C@H](Cc2c[nH]c3ccccc23)NC(=O)CNC(=O)[C@H](Cc2ccc(O)cc2)NC(=O)[C@H](CCCNC(=N)N)NC1=O` [cp1-FITC] (PARYGWDYECGK(FITC)-NH2; linker N-10 via X1): the “Penetration efficiency (FITC signal in cells)” value with Jurkat cells is “relatively low penetration efficiency”.

As to “cp6-FITC: FITC-labeled cp6; CPARYFWDYKCGK(FITC) (CPARYFWDYKCGK(FITC′); not fully specified (bridges); printed as CPARYFWDYKCGK(FITC); cysteine pairing not given here)”, the “Penetration efficiency (FITC signal in cells)” value in the data set with Jurkat cells is given as “relatively low penetration efficiency”.

By Kd is commonly meant the free concentration of one partner at which half of the binding sites on the other are occupied at equilibrium, for simple one-to-one binding. As for B1, the Kd came to 730 nM in data set [1]; 260 nM with BCL-2-F104L; 200 nM in data set [2]; 1450 nM with BCL-w (residues 6-152); 300 nM in the data set with BCL-2-G101V; 120 nM with BCL-2-D111A. This molecule gave a Kd with BCL-2-D103Y of 210 nM.

For the molecule B2, the Kd in data set [1] is 90 nM; with BCL-2-F104L, 710 nM; in data set [2] it was 240 nM; with BCL-w (residues 6-152) it was 220 nM; with BCL-2-G101V, 660 nM; with BCL-2-D111A it was 90 nM. This molecule returned a Kd in the data set with BCL-2-D103Y of 340 nM.

B3: the binding result in the data set with cp2-F is reported as “binds”.

For the origin of these results see PMC10874388, “Cyclic peptides discriminate BCL-2 and its clinical mutants from BCL-XL by engaging a single-residue discrepancy” (Nature Communications, 2024).
